Laboratory results from US12384811B2, “Sialidase-resistant saccharide and method of making and using the same” (Academia Sinica, priority 2019, dated 2025).

Legend:
FcγRIIIa = target: T1, FcγRIIIa (Homo sapiens, UniProt P08637); test: Surface plasmon resonance (SPR) analysis of binding avidity of glycoengineered Rituximab IgG1; details: for improvement in binding avidity to FcγRIIIa compared to the commercial sample of rituximab / Rmax / Kd / ka / kd: SPR; for Rmax / Kd / ka / kd: BIACORE T200, 25° C.; for Kd / ka / kd: single cycle kinetic, 1:1 Langmuir model; for Fold: binding avidity relative to commercial Rituximab
T1 construct: made in house; host or cells: HEK-293
T1 sequence (P08637 17-254): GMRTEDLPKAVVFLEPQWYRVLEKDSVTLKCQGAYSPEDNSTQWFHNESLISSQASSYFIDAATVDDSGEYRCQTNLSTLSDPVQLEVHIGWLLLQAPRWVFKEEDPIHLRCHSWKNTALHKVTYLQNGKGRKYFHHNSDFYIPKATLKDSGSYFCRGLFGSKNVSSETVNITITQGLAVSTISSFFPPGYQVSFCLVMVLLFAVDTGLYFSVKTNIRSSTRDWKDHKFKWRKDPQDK
Description: All the SPR experiments were performed with the single cycle kinetic method by BIACORE T200 at 25° C. using HBS-EP (10 mM HEPES pH7.4, 0.15M NaCl, 3mMEDTA, 0.005% surfactant P20) as running buffer. FcγRIIIa was transfected into HEK-293 cells to express the complex-type glycosylated recombinant protein as analyte. For the analysis of Rituximabs binding to FcγRIIIa receptor, antihuman Fab antibodies in human Fab capture kit (GE Healthcare) were immobilized onto both the reference and active channels of CM5 sensor chip, and then Rituximabs were captured on the active channel for interacting with the serial dilutions of FcγRIIIa analyte (2.5, 5, 10, 20, 40 nM for 2,6-FluoSCT and 2,6-SCT; 8, 24, 72, 216, 648 nM for the commercial Rituximabs) at 30 μl/min for association of 240 seconds followed by dissociation time of 420 seconds. Rituximab data were processed with double referencing for background subtraction. Data of Rituximabs was fitted to 1:1 Langmuir binding model in BiaEvaluation software (GE Healthcare) to obtain the kinetic/affinity constants (Table 4). Analyzed antibodies were captured by the Human Fab capture kit and detected with the single cycle kinetic method.

[1] = target: T2, sialidase from Vibrio cholerae (Vibrio cholerae serotype O1, UniProt P0C6E9); format: biochemical; details: pH 5.5
T2 construct: purchased Sigma Aldrich 11080725001
T2 sequence (P0C6E9 25-781): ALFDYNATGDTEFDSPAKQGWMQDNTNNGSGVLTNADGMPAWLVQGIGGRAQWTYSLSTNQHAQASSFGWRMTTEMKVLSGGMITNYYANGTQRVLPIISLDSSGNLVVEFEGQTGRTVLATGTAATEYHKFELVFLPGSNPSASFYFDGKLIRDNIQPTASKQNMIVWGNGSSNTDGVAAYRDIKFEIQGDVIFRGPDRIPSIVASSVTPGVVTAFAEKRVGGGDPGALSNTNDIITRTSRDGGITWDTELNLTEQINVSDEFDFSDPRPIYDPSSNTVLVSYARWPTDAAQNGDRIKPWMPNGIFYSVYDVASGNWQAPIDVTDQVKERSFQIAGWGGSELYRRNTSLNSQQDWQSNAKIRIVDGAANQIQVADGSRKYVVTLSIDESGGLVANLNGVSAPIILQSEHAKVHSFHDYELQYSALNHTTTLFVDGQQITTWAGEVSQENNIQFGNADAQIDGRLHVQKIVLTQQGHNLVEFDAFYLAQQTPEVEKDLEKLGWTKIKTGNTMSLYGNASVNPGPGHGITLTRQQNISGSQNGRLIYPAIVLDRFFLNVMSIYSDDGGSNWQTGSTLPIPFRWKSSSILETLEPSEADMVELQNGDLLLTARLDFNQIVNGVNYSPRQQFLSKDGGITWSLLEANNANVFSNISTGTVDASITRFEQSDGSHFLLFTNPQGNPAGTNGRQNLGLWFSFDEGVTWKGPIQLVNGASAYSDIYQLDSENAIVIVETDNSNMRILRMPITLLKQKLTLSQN

[2] = system: sialidase from Clostridium perfringens; format: biochemical; details: C. perfringens sialidase, substrate Neu5Ac-α2,6-GalβpNP 0.6 mM, inhibitor 0-20 mM (FIG. 1B)
[3] = target: T2, sialidase from Vibrio cholerae; format: biochemical
[4] = system: sialidase from Clostridium perfringens; format: biochemical; details: C. perfringens sialidase, 37° C., pH 5.0, substrate 0-20 mM, β-galactosidase, A405 nm (FIG. 1A)

2,6-F^axSCT: homogeneous rituximab IgG1 glycoform without core fucose bearing the 3F^ax-Neu5Ac-terminated α2,6-sialylated biantennary N-glycan
improvement in binding avidity to FcγRIIIa compared to the commercial sample of rituximab (FcγRIIIa): 37.4 fold | Rmax (FcγRIIIa): 71.28 RU | Kd (FcγRIIIa): 8.18 nM | ka (FcγRIIIa): 244000 M⁻¹ s⁻¹ | kd (FcγRIIIa): 0.001996 s⁻¹ | Fold (FcγRIIIa): 37.4-fold

2,6-SCT: parent nonfluorinated homogeneous rituximab glycoform (G2S2), α2,6-sialylated biantennary N-glycan without core fucose
improvement in binding avidity to FcγRIIIa compared to the commercial sample of rituximab (FcγRIIIa): 39.9 fold | Rmax (FcγRIIIa): 60.64 RU | Kd (FcγRIIIa): 7.67 nM | ka (FcγRIIIa): 268000 M⁻¹ s⁻¹ | kd (FcγRIIIa): 0.002059 s⁻¹ | Fold (FcγRIIIa): 39.9-fold

CC(=O)N[C@H]1[C@H]([C@H](O)[C@H](O)CO)OC(OC[C@H]2O[C@@H](Oc3ccc([N+](=O)[O-])cc3)[C@H](O)[C@@H](O)[C@H]2O)(C(=O)O)C[C@@H]1O (stereo partly drawn) [Compound 1, p-Nitrophenyl [5-acetamido-5-deoxy-D-glycero-α-D-galacto-non-2-ulopyranosylonate]-(2→6)-β-D-galactopyranoside]
hydrolytic activity of the sialidase toward the substrate [1]: expected hydrolytic activity

CC(=O)N[C@H]1[C@H]([C@H](O)[C@H](O)CO)OC(C(=O)O)=C[C@@H]1O [DANA, 2-deoxy-2,3-didehydro-N-acetylneuraminic acid]
inhibition of the hydrolysis of 1 [2]: inhibit the hydrolysis of 1 | inhibition of the hydrolysis of 1 [3]: inhibit the hydrolysis of 1

Rituximab: commercial sample of rituximab (Rituxan, Roche; major glycoforms: G1F1, G0F1, G2F1)
Rmax (FcγRIIIa): 32.33 RU | Kd (FcγRIIIa): 306 nM | ka (FcγRIIIa): 231000 M⁻¹ s⁻¹ | kd (FcγRIIIa): 0.07054 s⁻¹ | Fold (FcγRIIIa): 1-fold

p-Nitrophenyl [methyl 5-acetamido-3,5-dideoxy-3-fluoro-D-erythro-α-L-manno-non-2-ulopyranosonate]-(2→6)-β-D-galactopyranoside [Compound 2]
inhibition of the hydrolysis of 1 [2]: did not significantly inhibit | hydrolytic activity of the sialidase toward the substrate [1]: inactive | inhibition of the hydrolysis of 1 [3]: did not significantly inhibit | hydrolytic activity of the sialidase toward the substrate [4]: inactive
